According to article PMC4538381, “Activation of Relaxin Family Receptor 1 from Different Mammalian Species by Relaxin Peptide and Small-Molecule Agonist ML290” (Frontiers in Endocrinology, 2015):
Entries after “also recorded” stand apart in the source; their conditions may differ.

Columns and labels:
[1] = tested on: hRXFP1; assay: Direct HTRF cAMP assay, hRXFP1; format: cell-based, human; conditions: conditioned media from SQ10-transfected HEK293T cells, % of 10 μM Forskolin
Protocol: (§1) HEK293T cell transient transfections were performed using Lipofectamine 2000 transfection reagent (Life Technologies, Grand Island, NY, USA) according to the manufacturer’s instructions. Cells transiently expressing the RXFP1 receptors were used within 48 h of transfection. Each construct was tested at least three times. For cell-conditioned media stimulation, HEK293T cells were transfected with the rabbit RLN construct (SQ10) or an empty pCR3.1 vector, and cells were cultured for 24 h. The media was used to stimulate HEK293T cells transfected with the RXFP1 receptors.
(§2) Direct measurement of cAMP production was performed using the HTRF cAMP HiRange kit (CisBio, Bedford, MA, USA). HEK293T cells transiently transfected with different RXFP1 receptors were stimulated with various concentrations of RLN peptides or ML290 for 60 min at 37°C, 5% CO2, after which, two HTRF detection reagents (diluted according to assay kit directions in HTRF lysis buffer) were added. The plates were incubated for 60 min at room temperature, and the signal was read on a FLUOstar Omega (BMG Labtech, Cary, NC, USA) plate reader. cAMP levels were calculated according to the manufacturer’s instructions against a standard curve. Statistical processing of the data was performed using GraphPad Prism software.

[2] = tested on: G-RXFP1; assay: Direct HTRF cAMP assay, guinea pig G-RXFP1; format: cell-based, guinea pig (Cavia porcellus); conditions: conditioned media from SQ10-transfected HEK293T cells, % of 10 μM Forskolin
Protocol: The human, mouse, macaque, and pig RXFP1 cDNA constructs in baculovirus BacMam mammalian expression vector (Invitrogen, Carlsbad, CA, USA) were synthesized at the Eukaryotic Expression Group-Protein Expression laboratory (NCI, Frederick, MD, USA). The PCR primers for RT-PCR were designed to cover the full-length sequence of the open reading frame (ORF). PCR amplifications were performed with PfuUltra High-Fidelity DNA polymerase (Agilent Technologies, Santa Clara, CA, USA). Guinea pig RXFP1 (G-RXFP1) was amplified from guinea pig ovarian cDNA (Zyagen, San Diego, CA, USA). Rabbit RXFP1 (R1-RXFP1 and R2-RXFP1) cDNAs were amplified from rabbit uterus cDNA (Zyagen). All cloning was performed using the In-Fusion® HD Cloning Kit (Clontech Laboratories, Mountain View, CA, USA). Rabbit and guinea pig RXFP1s were cloned into pCR3.1 mammalian expression vector (Invitrogen). […]
Direct measurement of cAMP production was performed using the HTRF cAMP HiRange kit (CisBio, Bedford, MA, USA). […] The plates were incubated for 60 min at room temperature, and the signal was read on a FLUOstar Omega (BMG Labtech, Cary, NC, USA) plate reader. cAMP levels were calculated according to the manufacturer’s instructions against a standard curve. […]

[3] = tested on: R1-RXFP1 and R2-RXFP1; assay: Direct HTRF cAMP assay, rabbit R1-RXFP1 and R2-RXFP1; format: cell-based, European rabbit (Oryctolagus cuniculus); conditions: HTRF
Protocol: The human, mouse, macaque, and pig RXFP1 cDNA constructs in baculovirus BacMam mammalian expression vector (Invitrogen, Carlsbad, CA, USA) were synthesized at the Eukaryotic Expression Group-Protein Expression laboratory (NCI, Frederick, MD, USA). The PCR primers for RT-PCR were designed to cover the full-length sequence of the open reading frame (ORF). PCR amplifications were performed with PfuUltra High-Fidelity DNA polymerase (Agilent Technologies, Santa Clara, CA, USA). Guinea pig RXFP1 (G-RXFP1) was amplified from guinea pig ovarian cDNA (Zyagen, San Diego, CA, USA). Rabbit RXFP1 (R1-RXFP1 and R2-RXFP1) cDNAs were amplified from rabbit uterus cDNA (Zyagen). All cloning was performed using the In-Fusion® HD Cloning Kit (Clontech Laboratories, Mountain View, CA, USA). Rabbit and guinea pig RXFP1s were cloned into pCR3.1 mammalian expression vector (Invitrogen). In order to study RXFP1 surface expression, rabbit cDNAs were cloned into pcDNA3.1™/Zeo+ mammalian expression vector (Invitrogen), which contained an N-terminal FLAG-tag and a bovine prolactin signal sequence (3). […] To make chimeric clones, the human, guinea pig, and rabbit plasmid were used as templates to produce PCR amplicons, which were then used for overlapping PCR and subsequent cloning with the In-Fusion kit. The chimeric guinea pig/human GH-RXFP1 construct contains guinea pig RXFP1 cDNA (G-RXFP1, 1–1499 bp) encoding the ectodomain, TM1, TM2, and part of TM3 (amino acids 1–499 of G-RXFP1), and human RXFP1 (hRXFP1, 1509–2274 bp) encoding TM3 to the C-terminal tail of the receptor (amino acids 503–757 of hRXFP1) (Figure 1A). The recombinant chimeric human–rabbit HR-RXFP1 was made with the 5′-part of the hRXFP1 sequence (1–972 bp, LDLa-LRR9, 1–324 aa), with the remainder being the rabbit RXFP1 sequence (973–2277 bp, LRR9-C-terminal tail, 325–759 aa) (Figure 1A). The recombinant chimeric rabbit–human R1H-RXFP1 or R2H-RXFP1 contains the N-terminal rabbit RXFP1 sequence (1–972 bp for R1-RXFP1 or 975 bp for R2-RXFP1), with the remaining sequence being hRXFP1 (973–2274) (Figure 1A). R1- and R2-RXFP1 denote two variants of rabbit RXFP1 cDNA. All numbers correspond to the full-length cDNAs with the first nucleotide of the ORF.
as §1, §2

B1: SQ10: rabbit RLN expressed from SQ10 cDNA in HEK293T cells, used as conditioned medium (protein)
chain: RVTYEWMMENVKICRNDFVRTAIEVCGHVHLERESPSPENPFLSSGPAAETVPSSIKKDAENANTMLESIPNLPQELTATLFEKQPSKLYLQYLPTLKKSNVSFEEFKKIIQNIQRGVQGSSASESNTFSRKKRQFSESLPEECCKYGCPRYYLLMYC
- cAMP response to SQ10 conditioned medium [1]: responded to SQ10 treatment with cAMP production; also recorded: activated human and guinea pig receptors and thus was fully functional
- cAMP response to SQ10 conditioned medium [2]: responded to SQ10 treatment with cAMP production; also recorded: activated human and guinea pig receptors and thus was fully functional
- cAMP response to SQ10 conditioned medium ([3]; R1- or R2-RXFP1, conditioned media from SQ10-transfected HEK293T cells, % of 10 μM Forskolin): No response was recorded; also recorded: Neither of the two rabbit RXFP1 variants responded
- statistical significance of response versus hRXFP1 or G-RXFP1 ([3]; R1-RXFP1, SQ10 conditioned media): statistically significant (p < 0.0001) compared to hRXFP1 or G-RXFP1
